Measured values from article PMC3324563 (Biochemistry, 2012).
“And” between values parts separate entries of the source, which are not always exact repeats. Equal entries are not always repeated.

B1: Methanocaldococcus jannaschii prolyl-tRNA synthetase (ProRS) (enzyme, UniProt Q58635 1-455, looked up)
chain: MEFSEWYSDILEKAEIYDVRYPIKGCGVYLPYGFKIRRYTFEIIRNLLDESGHDEALFPMLIPEDLLAKEAEHIKGFEDEVYWVTHGGKTQLDVKLALRPTSETPIYYMMKLWVKVHTDLPIKIYQIVNTFRYETKHTRPLIRLREIMTFKEAHTAHSTKEEAENQVKEAISIYKKFFDTLGIPYLISKRPEWDKFPGAEYTMAFDTIFPDGRTMQIATVHNLGQNFSKTFEIIFETPTGDKDYAYQTCYGISDRVIASIIAIHGDEKGLILPPIVAPIQVVIVPLIFKGKEDIVMEKAKEIYEKLKGKFRVHIDDRDIRPGRKFNDWEIKGVPLRIEVGPKDIENKKITLFRRDTMEKFQVDETQLMEVVEKTLNNIMENIKNRAWEKFENFITILEDINPDEIKNILSEKRGVILVPFKEEIYNEELEEKVEATILGETEYKGNKYIAIAKTY

Columns and labels:
[1] = biological target: Methanocaldococcus jannaschii HmdIII (Methanocaldococcus jannaschii JAL-1); assay: SEC-MALS
[2] = biological target: Alexa Fluor 488-labeled Methanocaldococcus jannaschii ProRS (Methanocaldococcus jannaschii) (UniProt Q58635); assay: fluorescence polarisation
SEC-MALS = biological target: the molecule itself; assay: SEC-MALS
[3] = biological target: B1; assay: fluorescence polarisation

With “Methanocaldococcus jannaschii HmdIII (natural protein)” the stoichiometry N [1] was 2 and 4 and the Kd [2] was 1890 nM.

For B1, the “stoichiometry N” value (SEC-MALS) was 2.

B2: Alexafluor-labeled Methanocaldococcus jannaschii HmdII (natural protein, Methanocaldococcus jannaschii JAL-1, UniProt Q58734 1-353, looked up)
chain: MRNIRKIKVDNMKVSVYGAGNQNLYINKLNLPEKFGGEPPYGGSRMAIEFAEAGHDVVLAEPNKNIMSDDLWKKVEDAGVKVVSDDVEAAKHGEIHVLFTPFGKATFRIAKTIIEHVPENAVICNTCTVSPVVLYYSLEPILRTKRKDVGISSMHPAAVPGTPQHGHYVIGGKTTDGKELATEEQIKKAVELAKSAGKEAYVVPADVSSVVADMGSLVTAVALSGVLDYYTVGRKIINAPKKMIEQQVIMTLQTMASLVETSGIEGMVKALNPELLIRSASSMKLLDRQKDLDAALEILQNLDETLKAEVEKAEIKPTTLVAAQSLVKEIKTLIGGAAAEGAIKRSARKLFEH
modifications: Alexafluor label (AlexaFluor 488), site not stated
B2: binds [3].

B3: Methanocaldococcus jannaschii H2-forming N5,N10-methylene-H4MPT dehydrogenase (Hmd) (enzyme, Methanocaldococcus jannaschii JAL-1, UniProt Q58194 1-358, looked up)
chain: MKIAILGAGCYRTHAAAGITNFMRACEVAKEVGKPEIALTHSSITYGAELLHLVPDVKEVIVSDPCFAEEPGLVVIDEFDPKEVMEAHLSGNPESIMPKIREVVKAKAKELPKPPKACIHLVHPEDVGLKVTSDDREAVEGADIVITWLPKGNKQPDIIKKFADAIPEGAIVTHACTIPTTKFAKIFKDLGREDLNITSYHPGCVPEMKGQVYIAEGYASEEAVNKLYEIGKIARGKAFKMPANLIGPVCDMCSAVTATVYAGLLAYRDAVTKILGAPADFAQMMADEALTQIHNLMKEKGIANMEEALDPAALLGTADSMCFGPLAEILPTALKVLEKHKVVEEEGKTKCEIMSQKE
In the case of B3, the “stoichiometry N” value (SEC-MALS) is reported as 2.
